Laboratory results published in paper PMC7966797, “A cold shock protein promotes high-temperature microbial growth through binding to diverse RNA species”.

Key:
CspL [1] = target: T1, CspL (Bacillus coagulans 2-6, UniProt A0A0C5C4D7 1-67); assay: BLI; 2100, 210 nM CspL; binding lost at 21 nM; BLI, streptavidin sensor with 5'-biotin oligo; 20 mM PBS pH 7.4, 100 mM NaCl, 0.1% BSA, 0.02% Tween 20; CspL 20 ug/ml; temperature not in the material; conditions: protein: recombinant; tags: His; label: 5'-biotin
CspL [2] = target: T1, CspL; assay: BLI; BLI, streptavidin sensor with 5'-biotin oligo; 20 mM PBS pH 7.4, 100 mM NaCl, 0.1% BSA, 0.02% Tween 20; CspL 20 ug/ml; temperature not in the material; conditions: protein: recombinant, tags: His, label: 5'-biotin

GAGACCGGAATTCGAGCT (ssDNA) [18 nt ssDNA (ssDNA 5)]: binds (CspL [1]).

B1: dsDNA random (dsDNA)
DNA 1: CCGCAGATCCAGACGAGAGC
DNA 2: GCTCTCGTCTGGATCTGCGG
B1: no binding (CspL [2]; blunt).

CCGCAGAGAACGACGAGAGC (ssDNA) [ssDNA gaaC]: binds (CspL [2]).

B2: dsDNA gaaC (dsDNA)
DNA 1: CCGCAGAGAACGACGAGAGC
DNA 2: GCTCTCGTCGTTCTCTGCGG
B2: no binding (CspL [2]; blunt).

CCGCAGATCCAGACGAGAGC (ssDNA) [ssDNA random]: binds (CspL [2]).
